Test results taken from article PMC3531502 (PLoS Biology, 2012).

T1: HET-s (full-length) (Podospora anserina, UniProt Q03689 1-289)
T1 construct: also called unlabeled monomeric full-length HET-s; HET-s prion
T1 sequence (looked up): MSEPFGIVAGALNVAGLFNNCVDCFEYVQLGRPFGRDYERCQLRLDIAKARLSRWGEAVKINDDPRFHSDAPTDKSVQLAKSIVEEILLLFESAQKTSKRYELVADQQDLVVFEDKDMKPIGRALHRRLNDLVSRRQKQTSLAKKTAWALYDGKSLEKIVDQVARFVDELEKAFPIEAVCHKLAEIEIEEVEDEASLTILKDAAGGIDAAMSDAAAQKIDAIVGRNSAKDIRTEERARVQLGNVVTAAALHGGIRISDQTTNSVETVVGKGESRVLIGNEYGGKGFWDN

B1: HET-S (full-length, residues 1-289) (natural protein, Podospora anserina, UniProt B2ACC7 1-289, looked up)
chain: MSEPFEIVAGALGVAGLFNNCVACFEYVQLGRHFGRDYERCQLRLDIAKVRLSRWGEAVQINDDPRFHSSAPIDKSVQLAKSIVEEILLLFESAQKTSKRYELVADQQDLVVFEDKDMKPIGRALHRRLKDLVSRRQKQTSLAKKTAWALYDGKSLEKIVDQVAGFVDELEKAFPIEAVCHKLAENEIEEVEDEASLTILKDAAGGIDAAMSDAAAQKIDAIVGRNSAKDIRTEKRARVQLGNVVTAAALHGEIRISDQTTNSVETVVGKGESKVLIGNEYGGKGFWDN
notes: also called HET-S protein; recombinant HET-S

What was measured:
[1] = molecular target: the molecule itself; test: solid-state NMR (PAIN 13C-15N pol)
[2] = molecular target: B1; test: solid-state NMR (PAIN 13C-15N pol); details: both partners purified
[3] = molecular target: the molecule itself; test: solid-state NMR (NCA 2D and 3D co)
HET-s (full-length) = molecular target: T1, HET-s (full-length); test: solid-state NMR (NCA 2D and 3D co); details: both partners purified

Binder	binding result [1]	binding result [2]	binding result [3]	binding result (HET-s (full-length))
HET-s(218-289), prion-forming domain of HET-s (domain or fragment, Podospora anserina, UniProt Q03689 218-289, looked up, also called HET-s PFD; HET-s(218-289) amyloid seeds) KIDAIVGRNSAKDIRTEERARVQLGNVVTAAALHGGIRISDQTTNSVETVVGKGESRVLIGNEYGGKGFWDN	binds	binds		
B1			binds	binds
